US20210388087A1 (Chugai, published 2021)
Changes are numbered by the printed parent chain.

B1: CE115HA000/GLS3000 S56V (antibody, IgG1, name in Kabat numbering, V domains shown)
VH: QVQLVESGGGVVQPGRSLRLSCAASGFTFSNAWMHWVRQAPGKGLEWVAQIKAKSNNYATYYAESVKGRFTISRDDSKNSLYLQMNSLKTEDTAVYYCRYVHYGAYYGVDAWGQGTTVTVSS
VL: DIVMTQSPLSLPVTPGEPASISCRSSQSLVHSNRNTYLHWYQQKPGQAPRLLIYKVSNRFVGVPDRFSGSGSGTDFTLKISRVEAEDVGVYYCGQGTQVPYTFGQGTKLEIK
notes: one-arm IgG1
B2: CE115HA000/GLS3000 T31K (antibody, IgG1, name in Kabat numbering, V domains shown)
VH: B1 VH
VL: B1 VL with T36K, V61S
notes: one-arm IgG1
B3: CE115HA000/GLS3000 V27cY (antibody, IgG1, name in Kabat numbering, V domains shown)
VH: B1 VH
VL: B1 VL with V30Y, V61S
notes: one-arm IgG1
B4: CE115HA000/GLS3000 T92I (antibody, IgG1, name in Kabat numbering, V domains shown)
VH: B1 VH
VL: B1 VL with V61S, T97I
notes: one-arm IgG1
B5: CE115HA000/GLS3000 S56W (antibody, IgG1, name in Kabat numbering, V domains shown)
VH: B1 VH
VL: B1 VL with V61W
notes: one-arm IgG1
B6: CE115HA000/GLS3000 V51I (antibody, IgG1, name in Kabat numbering, V domains shown)
VH: B1 VH
VL: B1 VL with V56I, V61S
notes: one-arm IgG1
B7: CE115HA000/GLS3000 T92P (antibody, IgG1, name in Kabat numbering, V domains shown)
VH: B1 VH
VL: B1 VL with V61S, T97P
notes: one-arm IgG1
B8: CE115HA000/GLS3000 V94T (antibody, IgG1, name in Kabat numbering, V domains shown)
VH: B1 VH
VL: B1 VL with V61S, V99T
notes: one-arm IgG1
B9: CE115HA000/GLS3000 V27cP (antibody, IgG1, name in Kabat numbering, V domains shown)
VH: B1 VH
VL: B1 VL with V30P, V61S
notes: one-arm IgG1
B10: CE115HA000/GLS3000 V51P (antibody, IgG1, name in Kabat numbering, V domains shown)
VH: B1 VH
VL: B1 VL with V56P, V61S
notes: one-arm IgG1
B11: CE115HA000/GLS3000 V94I (antibody, IgG1, name in Kabat numbering, V domains shown)
VH: B1 VH
VL: B1 VL with V61S, V99I
notes: one-arm IgG1
B12: CE115HA000/GLS3000 V51D (antibody, IgG1, name in Kabat numbering, V domains shown)
VH: B1 VH
VL: B1 VL with V56D, V61S
notes: one-arm IgG1
B13: CE115HA000/GLS3000 T92Y (antibody, IgG1, name in Kabat numbering, V domains shown)
VH: B1 VH
VL: B1 VL with V61S, T97Y
notes: one-arm IgG1
B14: CE115HA000/GLS3000 V94G (antibody, IgG1, name in Kabat numbering, V domains shown)
VH: B1 VH
VL: B1 VL with V61S, V99G
notes: one-arm IgG1
B15: CE115HA000/GLS3000 V51G (antibody, IgG1, name in Kabat numbering, V domains shown)
VH: B1 VH
VL: B1 VL with V56G, V61S
notes: one-arm IgG1
B16: CE115HA000/GLS3000 V94D (antibody, IgG1, name in Kabat numbering, V domains shown)
VH: B1 VH
VL: B1 VL with V61S, V99D
notes: one-arm IgG1
B17: CE115HA000/GLS3000 V94K (antibody, IgG1, name in Kabat numbering, V domains shown)
VH: B1 VH
VL: B1 VL with V61S, V99K
notes: one-arm IgG1
B18: CE115HA000/GLS3000 V94H (antibody, IgG1, name in Kabat numbering, V domains shown)
VH: B1 VH
VL: B1 VL with V61S, V99H
notes: one-arm IgG1
B19: CE115HA000/GLS3000 V27cI (antibody, IgG1, name in Kabat numbering, V domains shown)
VH: B1 VH
VL: B1 VL with V30I, V61S
notes: one-arm IgG1
B20: CE115HA000/GLS3000 V94W (antibody, IgG1, name in Kabat numbering, V domains shown)
VH: B1 VH
VL: B1 VL with V61S, V99W
notes: one-arm IgG1
B21: CE115HA000/GLS3000 V27cS (antibody, IgG1, name in Kabat numbering, V domains shown)
VH: B1 VH
VL: B1 VL with V30S, V61S
notes: one-arm IgG1
B22: CE115HA000/GLS3000 V27cE (antibody, IgG1, name in Kabat numbering, V domains shown)
VH: B1 VH
VL: B1 VL with V30E, V61S
notes: one-arm IgG1
B23: CE115HA000/GLS3000 V94S (antibody, IgG1, name in Kabat numbering, V domains shown)
VH: B1 VH
VL: B1 VL with V61S, V99S
notes: one-arm IgG1
B24: CE115HA000/GLS3000 V94L (antibody, IgG1, name in Kabat numbering, V domains shown)
VH: B1 VH
VL: B1 VL with V61S, V99L
notes: one-arm IgG1
B25: CE115HA000/GLS3000 V94P (antibody, IgG1, name in Kabat numbering, V domains shown)
VH: B1 VH
VL: B1 VL with V61S, V99P
notes: one-arm IgG1
B26: CE115HA000/GLS3000 V51E (antibody, IgG1, name in Kabat numbering, V domains shown)
VH: B1 VH
VL: B1 VL with V56E, V61S
notes: one-arm IgG1
B27: CE115HA000/GLS3000 V94R (antibody, IgG1, name in Kabat numbering, V domains shown)
VH: B1 VH
VL: B1 VL with V61S, V99R
notes: one-arm IgG1
B28: CE115HA000/GLS3000 S56Y (antibody, IgG1, name in Kabat numbering, V domains shown)
VH: B1 VH
VL: B1 VL with V61Y
notes: one-arm IgG1
B29: CE115HA000/GLS3000 T92D (antibody, IgG1, name in Kabat numbering, V domains shown)
VH: B1 VH
VL: B1 VL with V61S, T97D
notes: one-arm IgG1
B30: CE115HA000/GLS3000 V27cL (antibody, IgG1, name in Kabat numbering, V domains shown)
VH: B1 VH
VL: B1 VL with V30L, V61S
notes: one-arm IgG1
B31: CE115HA000/GLS3000 T97P (antibody, IgG1, name in Kabat numbering, V domains shown)
VH: B1 VH
VL: B1 VL with V61S, T102P
notes: one-arm IgG1
B32: CE115HA000/GLS3000 T92A (antibody, IgG1, name in Kabat numbering, V domains shown)
VH: B1 VH
VL: B1 VL with V61S, T97A
notes: one-arm IgG1
B33: CE115HA000/GLS3000 V27cD (antibody, IgG1, name in Kabat numbering, V domains shown)
VH: B1 VH
VL: B1 VL with V30D, V61S
notes: one-arm IgG1
B34: CE115HA000/GLS3000 T31N (antibody, IgG1, name in Kabat numbering, V domains shown)
VH: B1 VH
VL: B1 VL with T36N, V61S
notes: one-arm IgG1
B35: CE115HA000/GLS3000 V94Q (antibody, IgG1, name in Kabat numbering, V domains shown)
VH: B1 VH
VL: B1 VL with V61S, V99Q
notes: one-arm IgG1
B36: CE115HA000/GLS3000 T31D (antibody, IgG1, name in Kabat numbering, V domains shown)
VH: B1 VH
VL: B1 VL with T36D, V61S
notes: one-arm IgG1
B37: CE115HA000/GLS3000 T31E (antibody, IgG1, name in Kabat numbering, V domains shown)
VH: B1 VH
VL: B1 VL with T36E, V61S
notes: one-arm IgG1
B38: CE115HA000/GLS3000 V94M (antibody, IgG1, name in Kabat numbering, V domains shown)
VH: B1 VH
VL: B1 VL with V61S, V99M
notes: one-arm IgG1
B39: CE115HA000/GLS3000 T92E (antibody, IgG1, name in Kabat numbering, V domains shown)
VH: B1 VH
VL: B1 VL with V61S, T97E
notes: one-arm IgG1
B40: CE115HA000/GLS3000 V94N (antibody, IgG1, name in Kabat numbering, V domains shown)
VH: B1 VH
VL: B1 VL with V61S, V99N
notes: one-arm IgG1
B41: CE115HA000/GLS3000 T92L (antibody, IgG1, name in Kabat numbering, V domains shown)
VH: B1 VH
VL: B1 VL with V61S, T97L
notes: one-arm IgG1
B42: CE115HA000/GLS3000 V94E (antibody, IgG1, name in Kabat numbering, V domains shown)
VH: B1 VH
VL: B1 VL with V61S, V99E
notes: one-arm IgG1
B43: CE115HA000/GLS3000 V94A (antibody, IgG1, name in Kabat numbering, V domains shown)
VH: B1 VH
VL: B1 VL with V61S, V99A
notes: one-arm IgG1
B44: CE115HA000/GLS3000 T31I (antibody, IgG1, name in Kabat numbering, V domains shown)
VH: B1 VH
VL: B1 VL with T36I, V61S
notes: one-arm IgG1
B45: CE115HA000/GLS3000 V94F (antibody, IgG1, name in Kabat numbering, V domains shown)
VH: B1 VH
VL: B1 VL with V61S, V99F
notes: one-arm IgG1
B46: CE115HA000/GLS3000 T92S (antibody, IgG1, name in Kabat numbering, V domains shown)
VH: B1 VH
VL: B1 VL with V61S, T97S
notes: one-arm IgG1
B47: CE115HA000/GLS3000 T31P (antibody, IgG1, name in Kabat numbering, V domains shown)
VH: B1 VH
VL: B1 VL with T36P, V61S
notes: one-arm IgG1

Each binder was assayed against T1, CD3 epsilon homodimer protein (UniProt P07766 23-126) (assay: SPR, antibody over immobilised CD3e homodimer;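 note: SPR at 25 °C with CD3 epsilon homodimer amine-coupled to a CM4 sensor chip and antibody flowed over as analyte in HBS-EP+ running buffer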).
T1 construct: also called CD3 (CD3 epsilon)
T1 sequence (P07766 23-126): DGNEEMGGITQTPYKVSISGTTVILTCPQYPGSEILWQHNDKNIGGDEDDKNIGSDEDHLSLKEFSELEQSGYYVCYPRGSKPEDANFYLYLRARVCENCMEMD
For B1, the “KD ratio to GLS3000” value was 0.94.
In the case of B2, the “KD ratio to GLS3000” value is reported as 0.88.
With B3 the “KD ratio to GLS3000” value was 1.25.
B4 was tested, and the “KD ratio to GLS3000” value was 1.91.
With B5 the “KD ratio to GLS3000” value was 1.12.
For B6, the “KD ratio to GLS3000” value was 0.69.
In the case of B7, the “KD ratio to GLS3000” value is reported as 26.7.
With B8 the “KD ratio to GLS3000” value was 1.06.
With B9 the “KD ratio to GLS3000” value was 3.71.
In the case of B10, the “KD ratio to GLS3000” value is reported as 6.
In the case of B11, the “KD ratio to GLS3000” value is reported as 1.46.
For B12, the “KD ratio to GLS3000” value was 1.5.
For B13, the “KD ratio to GLS3000” value was 2.55.
For B14, the “KD ratio to GLS3000” value was 2.59.
For B15, the “KD ratio to GLS3000” value was 0.83.
With B16 the “KD ratio to GLS3000” value was 1.05.
With B17 the “KD ratio to GLS3000” value was 0.91.
B18 was tested, and the “KD ratio to GLS3000” value was 1.16.
B19 was tested, and the “KD ratio to GLS3000” value was 1.03.
For B20, the “KD ratio to GLS3000” value was 1.81.
For B21, the “KD ratio to GLS3000” value was 3.04.
With B22 the “KD ratio to GLS3000” value was 1.1.
B23 was tested, and the “KD ratio to GLS3000” value was 0.81.
With B24 the “KD ratio to GLS3000” value was 3.06.
With B25 the “KD ratio to GLS3000” value was 1.1.
For B26, the “KD ratio to GLS3000” value was 0.88.
With B27 the “KD ratio to GLS3000” value was 1.11.
With B28 the “KD ratio to GLS3000” value was 1.1.
In the case of B29, the “KD ratio to GLS3000” value is reported as 11.2.
B30 was tested, and the “KD ratio to GLS3000” value was 0.81.
In the case of B31, the “KD ratio to GLS3000” value is reported as 3.35.
With B32 the “KD ratio to GLS3000” value was 1.35.
In the case of B33, the “KD ratio to GLS3000” value is reported as 3.21.
For B34, the “KD ratio to GLS3000” value was 4.46.
In the case of B35, the “KD ratio to GLS3000” value is reported as 1.1.
B36 was tested, and the “KD ratio to GLS3000” value was 30.9.
B37 was tested, and the “KD ratio to GLS3000” value was 1.59.
With B38 the “KD ratio to GLS3000” value was 2.74.
In the case of B39, the “KD ratio to GLS3000” value is reported as 19.6.
B40 was tested, and the “KD ratio to GLS3000” value was 0.96.
B41 was tested, and the “KD ratio to GLS3000” value was 1.61.
With B42 the “KD ratio to GLS3000” value was 1.18.
B43 was tested, and the “KD ratio to GLS3000” value was 1.05.
B44 was tested, and the “KD ratio to GLS3000” value was 1.1.
B45 was tested, and the “KD ratio to GLS3000” value was 1.75.
For B46, the “KD ratio to GLS3000” value was 0.81.
In the case of B47, the “KD ratio to GLS3000” value is reported as 10.8.
